In data set [1] the target is T1, human VEGF165 (human, UniProt P15692 27-191).
T1 construct: mature; Expressed from cDNA in 293EBNA cells (pREP7) or Cos-1 cells (pSG5)
Briefly: coexpression in transfected cells, immunoprecipitation. The text has this:
(§1) The biochemical properties of human VEGF-B₁₆₇ were examined in transfected human embryonic kidney 293EBNA cells (Invitrogen, Inc.). cDNA inserts encoding human VEGF-B₁₆₇ and human VEGF₁₆₅ [see Keck et al., Science, Vol. 246, pages 1309-312 (1989)] were individually cloned into the pREP7 expression vector (Invitrogen, Inc.). Human embryo kidney 293EBNA cells (expressing Epstein-Barr virus nuclear antigen-1) were transfected by transient transfection with the respective expression plasmids using calcium phosphate precipitation, and the cells were incubated for 48 hours. As a control, cells also were transfected with an expression vector containing the VEGF-B₁₆₇ cDNA in reverse orientation. Monolayers of cells were incubated in methionine-free and cysteine-free medium for 30 minutes followed by labeling with 100 μCi/ml [³⁵S]methionine and [³⁵S]cysteine (Promix, Amersham Inc.) in the same medium for 2 hours. The labeling medium was replaced with normal medium without serum, and labelled proteins were chased for 6 hours. Heparin was included during the chase when indicated (100 μg/ml). Media were collected after the chase period, and cells were solubilized in 10 mM Tris pH 7.5, 50 mM NaCl, 0.5% sodium deoxycholate, 0.5% Nonidet P-40, 0.1% SDS and 0.1 U/ml aprotinin. […]

Data set [2] concerns the molecule itself. As to the kind of experiment: immunoprecipitation and SDS-PAGE, transfected 293EBNA cells.
Text: as §1, with “hours.” for “hours. The labeling medium was replaced with normal medium without serum, and labelled proteins were chased for 6 hours. Heparin was included during the chase when indicated (100 μg/ml). Media were collected after the chase period, and cells were solubilized in 10 mM Tris pH 7.5, 50 mM NaCl, 0.5% sodium deoxycholate, 0.5% Nonidet P-40, 0.1% SDS and 0.1 U/ml aprotinin.”
VEGF-B₁₆₇ was expressed in the cells transfected with the plasmids containing the VEGF-B₁₆₇ DNA. Aliquots of the culture supernatants from cells treated or untreated with heparin and detergent solubilized cell lysates were subjected to immunoprecipitation with the specific antipeptide antiserum to VEGF-B obtained as described in Example 8 and analyzed by SDS-PAGE under reducing conditions unless otherwise indicated. […]

Data set [3] has as its target T1, human VEGF165. Briefly: cotransfected Cos-1 cells; immunoprecipitation of media and lysates, reducing SDS-PAGE (FIG. 23B). On the procedure:
cDNA inserts encoding mouse VEGF-B₁₈₆ and human VEGF₁₆₅ were cloned into the pSG5 expression vector [Green et al., Nucleic Acid Res., 16:369 (1988)]. Cos-1 cells were maintained in minimal essential medium (MEM) containing 10% fetal calf serum, 2 mM glutamine and appropriate antibiotics. For transfections, the cells were replated into 90 mm Petri dishes. The cells were transfected with the expression vectors, separately or in combination, using calcium phosphate precipitation and incubated for 36-48 hours. Monolayers of cells were incubated in medium free of methionine and cysteine for 30 min and then incubated in the same medium containing 100 μCi/ml of [³⁵S]-methionine and [³⁵S]-cysteine for 2 hours (Promix Amersham Inc.).
For the pulse-chase experiments, the cells were labeled for 30 minutes, washed twice with normal medium and then incubated for up to 6 hours in MEM without fetal calf serum. Media were collected after the chase period and the cells were solubilized in 10 mM Tris buffer pH 7.5 containing 50 mM NaCl, 0.5% deoxycholate, 0.5% nonidet P-40 and 0.1% SDS. Aliquots of the media and the cell lysates were subjected to immunoprecipitation using the specific antiserum to mouse VEGF-B from Example 8a and a specific antiserum to human VEGF commercially available from R&D Systems. The precipitates were analyzed by SDS-PAGE. […]

Data set [4] concerns the molecule itself. Briefly: SDS-PAGE and immunoblot of Sf21 culture medium. How it is done:
Sf21 cells [see Vaughn et al., In Vitro, 13:213-17 (1977)] were infected with the baculovirus stocks of Example 10 at a multiplicity of infection of 10 virus particles per cell. The infected Sf21 cells were grown in roller flasks and seeded at a density of 2×10⁶ cells per ml of serum free medium (Sf900II, Gibco-BRL) for 96 hours. Culture media and cells were then harvested. Aliquots of the cell lysates and of the media were analyzed by SDS-PAGE. Total protein patterns were visualized by staining the gels with Coomassie Brilliant Blue and the presence of expressed VEGF-B isoforms were visualized by immunoblotting using specific antipeptide antibodies to human and mouse VEGF-B as described above in Example 8. […] Both proteins were retained intracellularly in the infected cells and not released into the medium. In contrast, mouse VEGF-B-₁₈₆ was readily secreted into the medium in a dimeric form.
Background: A western blot detects proteins with antibodies after separation by electrophoresis.

T1 sequence (P15692 other isoform, or with tags, fused parts or gaps): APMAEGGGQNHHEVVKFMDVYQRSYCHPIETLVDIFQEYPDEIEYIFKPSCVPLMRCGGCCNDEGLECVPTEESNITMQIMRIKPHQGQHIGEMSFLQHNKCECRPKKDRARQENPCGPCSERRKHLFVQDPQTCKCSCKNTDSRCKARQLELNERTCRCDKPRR

B1: human VEGF-B167 (ligand)
chain: PVSQPDAPGHQRKVVSWIDVYTRATCQPREVVVPLTVELMGTVAKQLVPSCVTVQRCGGCCPDDGLECVPTGQHQVRMQILMIRYPSSQLGEMSLEEHSQCECRPKKKDSAVKPDSPRPLCPRCTQHHQRPDPRTCRCRCRRRSFLRCQGRGLELNPDTCRCRKLRR
notes: Expressed from cDNA in 293EBNA cells (pREP7) or in Sf9/Sf21 insect cells; it forms disulfide-linked homodimers and heterodimers with VEGF165; also called hVEGF-B167; vascular endothelial growth factor B
Take B1: the binding result in data set [1] and in data set [2] was “binds” in each case.

B2: murine VEGF-B186 (ligand)
chain: PVAQFDGPSHQKKVVPWIDVYARATCQPREVVVPLSMELMGNVVKQLVPSCVTVQRCGGCCPDDGLECVPTGQHQVRMQILMIQYPSSQLGEMSLEEHSQCECRPKKKESAVKPDRVAIPHHRPQPRSVPGWDSTPGASSPADIIHPTPAPGSSARLAPSAVNALTPGPAAAAADAAASSIAKGGA
notes: Expressed in Cos-1 cells (pSG5) or Sf21 insect cells; The form secreted from Cos-1 cells carries an unidentified covalent modification (Mr 32,000 against 24,000 in cells); it forms disulfide-linked homodimers and heterodimers with VEGF165; also called mVEGF-B186; mouse VEGF-B186
Regarding B2, the binding result in data set [3] and in data set [4] was “binds” throughout.

The values are drawn from US20050064493A1 (LICENTIA, published 2005).
